Read-outs that look alike come from different tables or passages of the source. Each block holds one binder with its values, some of them ahead of it.
Tests used:
[1] = target: T1, human CD40 on HEK293A/human CD40 cells (human, UniProt P25942 21-277); experiment: FACS on HEK293A/human CD40 cells
T1 construct: also called HEK-Blue/CD40 cells
Description: (§1) The bispecific antibodies as prepared above were tested for their binding capability to cell surface human, monkey and mouse CD40 proteins by FACS, using the HEK293A cells prepared in Example 1 that stably expressed human, monkey or mouse CD40. Briefly, a 96-well plate was seeded with 10⁵ HEK293A cells in 50 μl PBS, and then added with 100 μl serially diluted anti-CD40 antibody 714VH2VL2 and the bispecific antibodies of the disclosure (starting concentration at 40 μg/ml). After incubation at 4° C. for 1 h, the plate was washed by PBST for 3 times. The plate was added with 1:500 diluted APC-goat anti-mouse IgG (Cat #:405308, BioLegen, USA), incubated at 4° for 1 h, washed with PBS for 3 times, and subjected to fluorescence measurement in a FACS machine (BD).
(§2) Following the protocols in Example 4 and Example 5, the bi- or multi-specific antibodies of the disclosure were tested for their binding capability to human PD-L1 and human CD40 proteins by FACS using the HEK293A cells prepared in Example 1 that stably expressed human PD-L1 or human CD40.

[2] = target: T1, human CD40 on HEK293A/human CD40 cells; experiment: cell-based or functional assay
[3] = target: T2, monkey CD40 on HEK293A/monkey CD40 cells (monkey, UniProt P25942 21-277 (human entry)); experiment: FACS on HEK293A/monkey CD40 cells
T2 chain: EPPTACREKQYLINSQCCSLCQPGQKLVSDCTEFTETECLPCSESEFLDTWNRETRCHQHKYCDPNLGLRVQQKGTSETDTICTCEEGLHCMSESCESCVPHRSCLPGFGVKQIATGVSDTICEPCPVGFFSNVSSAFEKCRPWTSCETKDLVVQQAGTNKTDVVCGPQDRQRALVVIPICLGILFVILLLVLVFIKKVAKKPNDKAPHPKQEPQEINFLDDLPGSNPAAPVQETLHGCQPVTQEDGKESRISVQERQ
Description: as §1

[4] = target: T1, human CD40 on HEK293A/human CD40 cells; experiment: FACS on HEK293A/human CD40 cells; remark: listed apart in the source
Description: as §1, §2

[5] = target: T1, human CD40 on HEK293A/human CD40 cells; experiment: cell-based or functional assay; remark: listed apart in the source
[6] = target: T1, human CD40 on HEK293A/human CD40 cells; experiment: FACS on HEK293A/human CD40 cells; remark: listed apart in the source
Description: as §1

[7] = target: T1, human CD40 on HEK293A/human CD40 cells; experiment: cell-based or functional assay; remark: listed apart in the source
[8] = target: T3, human CD40-his protein (human, UniProt P25942 21-193); experiment: SPR (BIAcore 8K), human CD40-his coupled to CM5 chip, antibody injected
T3 construct: Bought protein; also called human CD40 protein; CD40 molecules; not shown: his tag
Text: (§3) Using BIAcore™ 8K instrument (GE Life Sciences, US), the binding affinity of the bi- or multi-specific antibodies to human CD40 and PD-L1 was quantitatively measured. Briefly, 100-200 response units (RU) of human CD40-his protein (Cat #:10774-1108H, Sino Biological, CN) or human PD-L1-his protein (Cat #:10084-H08H, Sino Biological, CN) were coupled to CM5 biosensor chips (Cat #:BR-1005-30, GE Life Sciences. USA). The un-reacted groups were then blocked with 1 M ethanolamine. Serially diluted antibodies at concentrations ranging from 0.3 μM to 10 μM were injected into the SPR running buffer (HBS-EP buffer, pH7.4, Cat #:BR-1006-69, GE Life Sciences, USA) at 30 μL/min. The binding affinity was calculated with the RUs of blank controls subtracted, and the association rate (kₐ) and dissociation rate (kd) were determined using the one-to-one Langmuir binding model (BIA Evaluation Software, GE Life Sciences, USA). The equilibrium dissociation constant KD was calculated as the kd/kₐ ratio.

[9] = target: T4, human PD-L1 on HEK293A/human PD-L1 cells (human, UniProt Q9NZQ7 19-290); experiment: FACS on HEK293A/human PD-L1 cells
Description: as §1, §2

[10] = target: T4, human PD-L1 on HEK293A/human PD-L1 cells; experiment: FACS blocking assay on HEK293A/human PD-L1 cells; blocked ligand PD-1-Fc
Description: The bispecific antibodies were tested for their blocking activity on PD-1-PD-L1 binding by FACS using the HEK293A cells stably expressing human PD-L1 molecules as prepared in Example 1. Briefly, a 96-well plate was seeded with 10⁵ HEK293A/human PD-L1 cells in 100 μl cell culture medium, and then added with 50 μl serially diluted anti-PD-L1 antibody 56E5VH5VL4 or MBS307-3 molecules. After incubation at 4° C. for 1 h. the plate was washed with PBST for 3 times, added with 100 μl 200 μg/ml PD-1-Fc fusion proteins (Cat #:10377-10211, Sino Biological, CN), incubated at 4° C. for 1 h, washed with PBST for 3 times, and added with 1:500 diluted PE-goat anti-human IgG (Cat #:PAI-86078, Thermofisher, USA). After incubation at 4° C. for 1 h, the plate was washed with PBST for 3 times and measured for fluorescence using a FACS machine (BD).
Following the protocol of Example 7, the bi- or multi-specific antibodies were tested for their capability to block PD-1-PD-L1 binding by FACS, using the HEK293A cells prepared in Example 1 that stably expressed human PD-L1 molecules.

[11] = target: T5, human PD-L1-his protein (human, UniProt Q9NZQ7 19-238); experiment: SPR (BIAcore 8K), human PD-L1-his coupled to CM5 chip, antibody injected
T5 construct: extracellular domain; also called human PD-L1 (ECD)-his; human PD-L1 protein; not shown: his tag
Text: as §3

[12] = target: T1, human CD40 on HEK293A/human CD40 cells; experiment: FACS on HEK293A/human CD40 cells; remark: listed apart in the source
Description: as §1, §2

T5 sequence (Q9NZQ7 19-238): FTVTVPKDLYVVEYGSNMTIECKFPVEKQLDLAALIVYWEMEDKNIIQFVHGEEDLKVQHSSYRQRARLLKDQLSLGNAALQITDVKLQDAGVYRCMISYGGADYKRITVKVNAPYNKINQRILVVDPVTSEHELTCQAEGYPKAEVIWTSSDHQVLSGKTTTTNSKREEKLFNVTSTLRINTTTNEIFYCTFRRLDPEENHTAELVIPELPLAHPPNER
T4 sequence (Q9NZQ7 19-290 limits assumed): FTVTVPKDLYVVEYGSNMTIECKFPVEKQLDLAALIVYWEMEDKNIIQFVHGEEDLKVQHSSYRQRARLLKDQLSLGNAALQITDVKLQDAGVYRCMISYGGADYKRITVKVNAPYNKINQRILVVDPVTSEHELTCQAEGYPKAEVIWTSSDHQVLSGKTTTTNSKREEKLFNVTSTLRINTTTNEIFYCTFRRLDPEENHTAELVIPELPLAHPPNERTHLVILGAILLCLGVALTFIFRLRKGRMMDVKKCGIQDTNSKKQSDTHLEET

B1: anti-CD40 antibody 7B4VH2VL2 (antibody, V domains shown)
VH: QVQLQESGPGLVKPSDTLSLTCAVSGYSITTNYYWNWIRQPPGKGLEWMGYIKYDGSNNYNPSLKNRITISVDTSKNQFSLKLSSVTAVDTAVYYCARLDYWGQGTLVTVSS
VL: DVVLTQSPLSLPVTLGQPASISCRSSQSLENSNGNTFLNWFQQRPGQSPRLLIYKVSNRFSGVPDRFSGSGSGTDFTLKISRVEAEDVGVYYCLQVTHVPFTFGQGTKLEIK
notes: also called the monospecific anti-CD40 antibody; 714VH2VL2 [sic]
EC50 (read off the curve) [1]: ~0.04 µg/mL
EC50 (read off the curve); HEK-Blue/CD40 reporter, OD630, plate coated with human PD-L1-his [2]: ~0.1 µg/mL
EC50 (read off the curve) [3]: ~0.04 µg/mL
EC50 (read off the curve) [4]: ~0.03 µg/mL
EC50 (read off the curve); HEK-Blue/CD40 reporter, OD630, plate coated with human PD-L1-his [5]: ~0.04 µg/mL
EC50 (read off the curve) [6]: ~0.05 µg/mL
EC50 (read off the curve); HEK-Blue/CD40 reporter, OD630, plate coated with human PD-L1-his [7]: ~0.1 µg/mL

B2: MBS307-6 (bispecific antibody, human IgG1, kappa, L234A L235A)
heavy 1: QVQLQESGPGLVKPSDTLSLTCAVSGYSITTNYYWNWIRQPPGKGLEWMGYIKYDGSNNYNPSLKNRITISVDTSKNQFSLKLSSVTAVDTAVYYCARLDYWGQGTLVTVSSASTKGPSVFPLAPSSKSTSGGTAALGCLVKDYFPEPVTVSWNSGALTSGVHTFPAVLQSSGLYSLSSVVTVPSSSLGTQTYICNVNHKPSNTKVDKKVEPKSCDKTHTCPPCPAPEAAGGPSVFLFPPKPKDTLMISRTPEVTCVVVDVSHEDPEVKFNWYVDGVEVHNAKTKPREEQYNSTYRVVSVLTVLHQDWLNGKEYKCKVSNKALPAPIEKTISKAKGQPREPQVYTLPPSREEMTKNQVSLWCLVKGFYPSDIAVEWESNGQPENNYKTTPPVLDSDGSFFLYSKLTVDKSRWQQGNVFSCSVMHEALHNHYTQKSLSLSPGK
heavy 2: QVQLQESGPGLVKPSDTLSLTCAVSGYSITTNYYWNWIRQPPGKGLEWMGYIKYDGSNNYNPSLKNRITISVDTSKNQFSLKLSSVTAVDTAVYYCARLDYWGQGTLVTVSSASTKGPSVFPLAPSSKSTSGGTAALGCLVKDYFPEPVTVSWNSGALTSGVHTFPAVLQSSGLYSLSSVVTVPSSSLGTQTYICNVNHKPSNTKVDKKVEPKSCDKTHTCPPCPAPEAAGGPSVFLFPPKPKDTLMISRTPEVTCVVVDVSHEDPEVKFNWYVDGVEVHNAKTKPREEQYNSTYRVVSVLTVLHQDWLNGKEYKCKVSNKALPAPIEKTISKAKGQPREPQVYTLPPSREEMTKNQVSLSCAVKGFYPSDIAVEWESNGQPENNYKTTPPVLDSDGSFFLVSKLTVDKSRWQQGNVFSCSVMHEALHNHYTQKSLSLSPGSGGGGSGGGGSQVQLQESGPGLVKPSQTLSLTCTVSGGSITSDYWNWIRQHPGNKLEYMGYISYTGSTYYNPSLKSRISITRDTSKNQFSLKLSSVTTADTAVYYCARYRDWDVRAMDYWGQGTTVTVSSGGGGSGGGGSGGGGSGGGGSDIVMTQSPDSLAVSLGEKVTMNCKSSQSLLISGNQKNFLTWYQQKPGQPPKLLIYWASTRESGVPDRFSGSGSGTDFTLTISSLQAEDEAVYYCQNDFGFPFTFGQGTKLTAK
light: DVVLTQSPLSLPVTLGQPASISCRSSQSLENSNGNTFLNWFQQRPGQSPRLLIYKVSNRFSGVPDRFSGSGSGTDFTLKISRVEAEDVGVYYCLQVTHVPFTFGQGTKLEIKRTVAAPSVFIFPPSDEQLKSGTASVVCLLNNFYPREAKVQWKVDNALQSGNSQESVTEQDSKDSTYSLSSTLTLSKADYEKHKVYACEVTHQGLSSPVTKSFNRGEC
notes: Asymmetric: anti-CD40 antibody, knob chain without scFv, hole chain with the anti-PD-L1 scFv of 56E5VH5VL4; also called MBS307-6-1 + MBS307-6-2
EC50 (read off the curve) [1]: ~0.07 µg/mL
Kd [8]: 3.11 nM
EC50 (read off the curve) [9]: ~0.6 µg/mL
EC50 (read off the curve); HEK-Blue/CD40 reporter, OD630, plate coated with human PD-L1-his [7]: ~0.02 µg/mL
IC50 (read off the curve) [10]: ~1 µg/mL
Kd [11]: 42 nM

Continued by falling Kd [8], values first:

EC50 (read off the curve) [1]: ~0.07 µg/mL
Kd [8]: 2.72 nM
EC50 (read off the curve); HEK-Blue/CD40 reporter, OD630, plate coated with human PD-L1-his [2]: ~0.05 µg/mL
EC50 (read off the curve) [4]: ~0.04 µg/mL
EC50 (read off the curve) [12]: ~0.02 µg/mL
EC50 (read off the curve); HEK-Blue/CD40 reporter, OD630, plate coated with human PD-L1-his [7]: ~0.03 µg/mL
Kd [11]: 17.7 nM
B4: MBS307-10 (bispecific antibody, human IgG1, kappa, L234A L235A)
heavy 1: B2 heavy 1
heavy 2: QVQLQESGPGLVKPSDTLSLTCAVSGYSITTNYYWNWIRQPPGKGLEWMGYIKYDGSNNYNPSLKNRITISVDTSKNQFSLKLSSVTAVDTAVYYCARLDYWGQGTLVTVSSASTKGPSVFPLAPSSKSTSGGTAALGCLVKDYFPEPVTVSWNSGALTSGVHTFPAVLQSSGLYSLSSVVTVPSSSLGTQTYICNVNHKPSNTKVDKKVEPKSCDKTHTCPPCPAPEAAGGPSVFLFPPKPKDTLMISRTPEVTCVVVDVSHEDPEVKFNWYVDGVEVHNAKTKPREEQYNSTYRVVSVLTVLHQDWLNGKEYKCKVSNKALPAPIEKTISKAKGQPREPQVYTLPPSREEMTKNQVSLSCAVKGFYPSDIAVEWESNGQPENNYKTTPPVLDSDGSFFLVSKLTVDKSRWQQGNVFSCSVMHEALHNHYTQKSLSLSPGGGGGQVQLVQSGAEVKKPGASVKVSCKASGYTFTDYHVNWVRQAPGQGLEWIGWIFPGSGRTFYTDKFKGRVTMTVDTSTSTVYMELSSLRSEDTAVYYCATDYGTSGYGLVYWGQGTTVTVSSGGGGSGGGGSGGGGSGGGGSDIQMTQSPSSLSASVGDRVTITCKASDRINNWLAWYQQKPGKAPKLLISGATSLETGVPSRFSGSGSGTDFTLTISSLQPEDEATYYCQQYWNIPFTFGQGTKLTAK
light: B2 light
notes: Asymmetric: knob chain without scFv, hole chain with the 3C2VH6VL5 scFv; also called MBS307-10-1 + MBS307-10-2

Kd [8]: 1.43 nM
EC50 (read off the curve); HEK-Blue/CD40 reporter, OD630, plate coated with human PD-L1-his [2]: ~0.1 µg/mL
EC50 (read off the curve) [4]: ~0.06 µg/mL
Kd [11]: 11.9 nM
B3: MBS307-7 (bispecific antibody, human IgG1, kappa, L234A L235A)
heavy: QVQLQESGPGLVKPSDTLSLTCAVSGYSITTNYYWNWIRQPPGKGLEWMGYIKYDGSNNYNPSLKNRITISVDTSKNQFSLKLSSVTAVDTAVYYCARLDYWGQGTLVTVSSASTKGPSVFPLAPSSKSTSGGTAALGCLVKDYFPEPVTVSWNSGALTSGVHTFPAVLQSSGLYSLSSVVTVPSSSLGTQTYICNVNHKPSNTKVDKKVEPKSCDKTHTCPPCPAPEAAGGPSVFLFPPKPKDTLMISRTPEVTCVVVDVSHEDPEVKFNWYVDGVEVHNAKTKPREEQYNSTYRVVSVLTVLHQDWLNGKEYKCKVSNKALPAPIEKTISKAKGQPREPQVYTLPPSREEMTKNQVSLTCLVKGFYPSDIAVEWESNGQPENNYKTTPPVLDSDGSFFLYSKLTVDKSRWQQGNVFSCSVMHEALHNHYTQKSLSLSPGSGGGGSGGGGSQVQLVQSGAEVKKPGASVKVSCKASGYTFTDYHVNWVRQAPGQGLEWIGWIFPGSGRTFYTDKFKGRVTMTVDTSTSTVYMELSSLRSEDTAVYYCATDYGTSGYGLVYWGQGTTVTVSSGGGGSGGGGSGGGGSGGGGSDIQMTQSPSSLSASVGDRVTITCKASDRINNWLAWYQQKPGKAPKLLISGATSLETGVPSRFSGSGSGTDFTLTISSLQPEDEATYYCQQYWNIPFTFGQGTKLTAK
light: B2 light
notes: Symmetric: full-length anti-CD40 antibody with the anti-PD-L1 scFv of 3C2VH6VL5 on each heavy chain

Source: US20240084027A1 (BEIJING MABWORKS, published 2024)
